Test results reported in PMC3099715 (The Journal of Biological Chemistry, 2011).
Read-outs that look alike come from different tables or passages of the source. One block for each molecule: values may come before it. No end group written: not given here. fluorescein = fluorescein fluorophore covalently attached to the cysteine residue

Key:
[1] = molecular target: fluorescein-labeled P5 peptide (F-P5) (chicken); test: fluorescence polarisation
[2] = molecular target: fluorescein-labeled Isu1 peptide (F-Isu1) (S. cerevisiae); test: fluorescence polarisation
[3] = molecular target: fluorescein-labeled P5 peptide (F-P5) (chicken); test: fluorescence polarisation; remark: listed apart in the source
[4] = molecular target: T1, Ssc1 (mitochondrial heat shock protein 70 of Saccharomyces cerevisiae) (S. cerevisiae, UniProt P0CS90 24-654); test: fluorescence polarisation
[5] = molecular target: T2, substrate-binding domain of Ssc1, Ssc1(418–654) (S. cerevisiae, UniProt P0CS90 418-654); test: fluorescence polarisation
T2 sequence (looked up): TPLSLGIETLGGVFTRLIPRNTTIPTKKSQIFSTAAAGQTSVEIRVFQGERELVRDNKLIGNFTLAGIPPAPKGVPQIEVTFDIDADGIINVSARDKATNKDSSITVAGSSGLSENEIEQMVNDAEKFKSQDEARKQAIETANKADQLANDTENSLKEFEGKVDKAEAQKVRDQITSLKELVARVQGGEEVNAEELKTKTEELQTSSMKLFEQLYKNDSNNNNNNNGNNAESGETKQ

[6] = molecular target: T1, Ssc1 (mitochondrial heat shock protein …); test: fluorescence polarisation; remark: listed apart in the source
[7] = molecular target: T1, Ssc1 (mitochondrial heat shock protein …); test: fluorescence polarisation; remark: listed apart in the source
[8] = molecular target: T1, Ssc1 (mitochondrial heat shock protein …); test: fluorescence polarisation; remark: listed apart in the source
[9] = molecular target: T1, Ssc1 (mitochondrial heat shock protein …); test: pull-down

Molecule: SBD_(Ssc1)-(ABCD)_(Ssc3) chimera (variable domain of the SBD of Ssc1 replaced with that of Ssc3) (domain or fragment)
Kd [1]: 22.7 µM

Molecule: Ssc3 (mitochondrial Hsp70 paralog of Saccharomyces cerevisiae) (natural protein)
Kd [2]: > 90 µM | Kd [1]: 30.1 µM | koff [1]: 0.244 s⁻¹ | Kd [3]: 26.3 µM

B1: GST-Hep1 (yeast Hep1 co-chaperone) (natural protein, yeast (S. cerevisiae), UniProt P42844 48-174, looked up)
chain: NEVKKDDKKVHLGSFKVDKPKMMIAFTCKKCNTRSSHTMSKQAYEKGTVLISCPHCKVRHLIADHLKIFHDHHVTVEQLMKANGEQVSQDVGDLEFEDIPDSLKDVLGKYAKNNSENASQLPHPSQK
Kd [9]: ~1.5 µM

Now from value to molecule:

Kd [4]: 7.07 ± 0.872 µM
Molecule: LSLPPVKLHC(fluorescein) [fluorescein-labeled Isu1 peptide (F-Isu1)]

Kd [5]: 0.264 ± 0.041 µM | Kd [6]: 0.231 ± 0.014 µM | koff [7]: 0.003 s⁻¹ | Kd [8]: 30.9 ± 2.6 µM
Molecule: CALLLSAPRR (fluorescein fluorophore covalently attached to the cysteine residue) [fluorescein-labeled P5 peptide (F-P5)]
